Target: the molecule itself
Test: unfolding kinetics by CD

B1: Human C6A/C111S SOD (Cu, Zn superoxide dismutase) (enzyme)
chain: not shown
koff: 0.000381 s⁻¹
